Data on 3 variants can be found in IntAct's records for PubMed 11967127.

B1: Disabled homolog 2 (Mus musculus), P98078 (parent)
chain: MSNEVETSTTNGQPDQQAAPKAPSKKEKKKGSEKTDEYLLARFKGDGVKYKAKLIGIDDVPDARGDKMSQDSMMKLKGMAAAGRSQGQHKQRIWVNISLSGIKIIDEKTGVIEHEHPVNKISFIARDVTDNRAFGYVCGGEGQHQFFAIKTGQQAEPLVVDLKDLFQVIYNVKKKEEDKKKVEEANKAEENGSEALMTLDDQANKLKLGVDQMDLFGDMSTPPDLNSPTESKDILLVDLNSEIDTNQNSLRENPFLTNGVTSCSLPRPKPQASFLPENAFSANLNFFPTPNPDPFRDDPFAQPDQSAPSSFDSLTSPDQKKASLSSSSTPQSKGPLNGDTDYFGQQFDQLSNRTGKPEAQGGPWPYPSSQTQQAVRTQNGVSEREQNGFHIKSSPNPFVGSPPKGLSVPNGVKQDLESSVQSSAHDSIAIIPPPQSTKPGRGRRTAKSSANDLLASDIFASEPPGQMSPTGQPAVPQSNFLDLFKGNAPAPVGPLVGLGTVPVTPPQAGPWTPVVYSPSTTVVPGAIISGQPPSFRQPLVFGTTPAVQVWNQSPSFATPASPPPPTVWCPTTSVAPNAWSSTSPLGNPFQSNNIFPPPTMSTQSSPQPMMSSVLATPPQPPPRNGPLKDIPSDAFTGLDPLGDKEVKEVKEMFKDFQLRQPPLVPSRKGETPPSGTSSAFSSYFNNKVGIPQEHVDHDDFDANQLLNKINEPPKPAPRQGVLLGTKSADNSLENPFSKGFSSSNPSVVSQPASSDPHRSPFGNPFA
B2: Disabled homolog 1 (Mus musculus), P97318 (parent)
chain: MSTETELQVAVKTSAKKDSRKKGQDRSEATLIKRFKGEGVRYKAKLIGIDEVSAARGDKLCQDSMMKLKGVVAGARSKGEHKQKIFLTISFGGIKIFDEKTGALQHHHAVHEISYIAKDITDHRAFGYVCGKEGNHRFVAIKTAQAAEPVILDLRDLFQLIYELKQREELEKKAQKDKQCEQAVYQTILEEDVEDPVYQYIVFEAGHEPIRDPETEENIYQVPTSQKKEGVYDVPKSQPNSQPLEDFESRFAAATPNRNLSMDFDELLEATKVSAVTQLELFGDMSTPPDITSPPTPATPGDAFLPSSSQTLPGSADVFGSMSFGTAAVPSGYVAMGAVLPSFWGQQPLVQQQIAMGAQPPVAQVIPGAQPIAWGQPGLFPATQQAWPTVAGQFPPAAFMPTQTVMPLAAAMFQGPLTPLATVPGTNDSARSSPQSDKPRQKMGKESFKDFQMVQPPPVPSRKPDQPSLTCTSEAFSSYFNKVGVAQDTDDCDDFDISQLNLTPVTSTTPSTNSPPTPAPRQSSPSKSSASHVSDPTADDIFEEGFESPSKSEEQEAPDGSQASSTSDPFGEPSGEPSGDNISPQDGS

In one experiment the parent is B1. The following applies: with myo6_chick MYO6, Q9I8D1.
Target sequence in this assay (Q9I8D1 whole entry): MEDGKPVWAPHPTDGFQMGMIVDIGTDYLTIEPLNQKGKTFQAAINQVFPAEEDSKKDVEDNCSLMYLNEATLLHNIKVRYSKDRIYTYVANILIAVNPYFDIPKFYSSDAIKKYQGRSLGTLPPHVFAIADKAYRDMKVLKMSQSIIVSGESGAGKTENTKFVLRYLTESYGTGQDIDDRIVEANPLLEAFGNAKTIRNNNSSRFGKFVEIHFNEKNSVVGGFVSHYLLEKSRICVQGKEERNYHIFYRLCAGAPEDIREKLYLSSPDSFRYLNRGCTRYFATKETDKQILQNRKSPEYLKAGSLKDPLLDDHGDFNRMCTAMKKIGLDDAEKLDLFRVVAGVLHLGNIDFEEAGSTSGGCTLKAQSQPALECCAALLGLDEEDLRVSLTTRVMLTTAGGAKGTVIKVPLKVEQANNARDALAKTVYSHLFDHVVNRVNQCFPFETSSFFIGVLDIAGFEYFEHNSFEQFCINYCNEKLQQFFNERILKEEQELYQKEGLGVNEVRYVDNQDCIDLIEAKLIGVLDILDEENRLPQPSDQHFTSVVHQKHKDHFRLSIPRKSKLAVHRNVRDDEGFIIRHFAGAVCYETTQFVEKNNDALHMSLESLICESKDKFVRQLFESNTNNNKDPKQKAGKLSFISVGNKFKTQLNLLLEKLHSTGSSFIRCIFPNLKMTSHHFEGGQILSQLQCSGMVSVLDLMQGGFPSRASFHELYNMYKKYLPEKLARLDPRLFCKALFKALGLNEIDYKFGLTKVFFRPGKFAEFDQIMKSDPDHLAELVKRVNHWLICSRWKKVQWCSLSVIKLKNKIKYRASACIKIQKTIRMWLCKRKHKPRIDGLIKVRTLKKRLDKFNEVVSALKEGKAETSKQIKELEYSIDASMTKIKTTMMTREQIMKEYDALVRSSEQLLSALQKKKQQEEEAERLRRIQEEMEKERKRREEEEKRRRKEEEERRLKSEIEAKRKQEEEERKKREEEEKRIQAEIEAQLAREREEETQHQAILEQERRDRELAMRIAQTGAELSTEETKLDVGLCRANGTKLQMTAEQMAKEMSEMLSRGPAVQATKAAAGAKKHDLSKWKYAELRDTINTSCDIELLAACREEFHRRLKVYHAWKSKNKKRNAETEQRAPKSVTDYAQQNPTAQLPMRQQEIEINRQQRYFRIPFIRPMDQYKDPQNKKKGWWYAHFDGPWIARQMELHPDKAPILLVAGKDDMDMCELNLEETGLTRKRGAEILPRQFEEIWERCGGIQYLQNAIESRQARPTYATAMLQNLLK
On to D699A;F700A;D701A, for which the “effect of a mutation on the interaction” value is given as “decreasing interaction”.

For S682A;Y683A;F684A, the “effect of a mutation on the interaction” value is reported as “disrupting interaction”.

In the next experiment the parent is B2. The settings on record: with myo6_chick MYO6, Q9I8D1.
Target sequence in this assay (Q9I8D1 whole entry): as above
For the variant S478A;Y479A;F480A, the “effect of a mutation on the interaction” value is recorded as “decreasing interaction”.
